The values below come from PMC9371925 (Nucleic Acids Research, 2022).

Numbering of substitutions follows the chain as printed. “And” between values parts separate entries of the source, which are not always exact repeats. Identical values can stand only once. Like-named read-outs stand apart in the source and are kept apart here.

Series [1] deals with Streptomyces coelicolor zinc uptake regulator (ScZur) (Streptomyces coelicolor M145). In words: cryo-EM structure.
The series “cryo-EM structure” deals with the molecule itself. In words: cryo-EM structure.
The target in series [2] is T1, ScZur (Streptomyces coelicolor M145, UniProt Q9L2H5 1-139).
T1 sequence: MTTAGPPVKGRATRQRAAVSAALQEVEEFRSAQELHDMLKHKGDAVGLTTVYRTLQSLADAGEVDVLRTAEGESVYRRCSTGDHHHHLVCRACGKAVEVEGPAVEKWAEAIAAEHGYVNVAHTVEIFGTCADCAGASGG
The experiment in a line: EMSA.

Series [3] deals with T1, ScZur. The experiment in a line: EMSA. This is another data set of the same source. (In general: Mobility shift assays separate free from complexed probe on a gel.)

What is called stoichiometry N is a count of units in the complex or per binding partner. A word on the Kd: it is the constant that tells how readily two partners part at equilibrium. Higher therefore signals a looser complex.

With “Streptomyces coelicolor zinc uptake regulator (ScZur) (natural protein)”, in series [1], the stoichiometry N was 6 and 4.

B1: Streptomyces coelicolor RNA polymerase α subunit (natural protein, Streptomyces coelicolor M145)
chain: MLIAQRPSLTEEVVDEFRSRFVIEPLEPGFGYTLGNSLRRTLLSSIPGAAVTSIRIDGVLHEFTTVPGVKEDVTDLILNIKQLVVSSEHDEPVVMYLRKQGPGLVTAADIAPPAGVEVHNPDLVLATLNGKGKLEMELTVERGRGYVSAVQNKQVGQEIGRIPVDSIYSPVLKVTYKVEATRVEQRTDFDKLIVDVETKQAMRPRDAMASAGKTLVELFGLARELNIDAEGIDMGPSPTDAALAADLALPIEELELTVRSYNCLKREGIHSVGELVARSEADLLDIRNFGAKSIDEVKAKLAGMGLALKDSPPGFDPTAAADAFGADDDADAGFVETEQY
On to B1, for which the binding result in “cryo-EM structure” was “binds”.

B2: zitB Zur-box 33 bp (-68 to -36) (dsDNA)
DNA 1: CAAGGCACATGACAACGGTGTTCAGTGCCGCGT
DNA 2: ACGCGGCACTGAACACCGTTGTCATGTGCCTTG
B2: the Kd with ScZur [2] came to 34 ± 0.7 nM.

B3: M2 33 bp (dsDNA)
DNA 1: B2 DNA 1 with G11C, G17T, C23G
DNA 2: B2 DNA 2 with G11C, C17A, C23G
As for B3, the Kd in the series with ScZur [3] came out at 223 ± 30.5 nM.
